Target: the molecule itself
Assay: SEC; Superdex 75 10/300 GL, 0.5 mg protein loaded, 50 mM potassium phosphate buffer pH 7.0, 150 mM NaCl, 0.5 ml/min; column calibrated with marker proteins; self-association of RacR (octamer)

B1: C-terminally-6His-tagged RacR repressor (natural protein, Escherichia coli K-12 (Rac prophage), UniProt P76062 1-158, looked up)
chain: MLSGKDLGRAIEQAINKKIASGSVKSKAEVARHFKVQPPSIYDWIKKGSISKDKLPELWRFFSDVVGPEHWGLNEYPIPTPTNSDTKSELLDINNLYQAASDEIRAIVAFLLSGNATEPDWVDHDVRAYIAAMEMKVGKYLKALESERKSQNITKTGT
notes: RacR repressor of the cryptic Rac prophage of Escherichia coli K-12; predicted size of the 6His-tagged monomer 18.5 kDa; not shown: 6His, C-terminal, kept
In the case of B1, the “stoichiometry N” value is reported as 8.

Source: publication PMC11014345, “Lethal perturbation of an Escherichia coli regulatory network is triggered by a restriction-modification system's regulator and can be mitigated by excision of the cryptic prophage Rac” (Nucleic Acids Research, 2023)
